Measured values reported in the supplement of paper PMC9112550, “Optimization of the antimicrobial peptide Bac7 by deep mutational scanning” (BMC Biology, 2022).

System: Escherichia coli TOP10
Assay: shrunken log2 fold change of peptide-encoding DNA abundance (4.5 h post-induction vs induction); higher = less antimicrobial activity (less host growth inhibition)
Conditions: time post-induction: 4.5 h; library: site-saturation at positions 5, 18, 19, 20
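Also: peptides expressed intracellularly from a pBAD plasmid library in pooled LB shake-flask culture, induced with 0.3% L-arabinose, DNA abundance read by NGS, three biological replicates, DESeq2 with apeglm shrinkage.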

Sequence | shrunken log2 fold change
RRIRDRPPRLPRPRPRPHCNPRP | -0.226
RRIRDRPPRLPRPRPRPHFMPRP | -0.47
RRIRDRPPRLPRPRPRPHHEPRP | 0.0131
RRIRDRPPRLPRPRPRPHHMPRP | -0.128
RRIRDRPPRLPRPRPRPHKAPRP | -0.0142
RRIRDRPPRLPRPRPRPHKDPRP | -0.239
RRIRDRPPRLPRPRPRPHKHPRP | -0.217
RRIRDRPPRLPRPRPRPHLNPRP | -0.152
RRIRDRPPRLPRPRPRPHNCPRP | 0.0686
RRIRDRPPRLPRPRPRPHNIPRP | -0.53
RRIRDRPPRLPRPRPRPHNYPRP | -0.423
RRIRDRPPRLPRPRPRPHPCPRP | 0.0731
RRIRDRPPRLPRPRPRPHQQPRP | -0.0346
RRIRDRPPRLPRPRPRPHQTPRP | 0.0267
RRIRDRPPRLPRPRPRPHRIPRP | -0.00804
RRIRDRPPRLPRPRPRPHRSPRP | -0.015
RRIRDRPPRLPRPRPRPHSQPRP | -0.0254
RRIRDRPPRLPRPRPRPHTKPRP | 0.0345
RRIRDRPPRLPRPRPRPHTQPRP | -0.455
RRIRDRPPRLPRPRPRPHWNPRP | -0.201
RRIRDRPPRLPRPRPRPHYPPRP | -0.265
RRIRDRPPRLPRPRPRPHYRPRP | -0.562
RRIRDRPPRLPRPRPRPIAGPRP | -0.0166
RRIRDRPPRLPRPRPRPIAHPRP | 0.41
RRIRDRPPRLPRPRPRPIAPPRP | 0.0634
RRIRDRPPRLPRPRPRPIASPRP | 0.194
RRIRDRPPRLPRPRPRPIAWPRP | 0.0633

Sequence | shrunken log2 fold change
RRIRDRPPRLPRPRPRPICEPRP | 0.229
RRIRDRPPRLPRPRPRPIDSPRP | -0.0258
RRIRDRPPRLPRPRPRPIGDPRP | -0.00843
RRIRDRPPRLPRPRPRPIGIPRP | 0.00854
RRIRDRPPRLPRPRPRPIGYPRP | -0.174
RRIRDRPPRLPRPRPRPIHEPRP | -0.0852
RRIRDRPPRLPRPRPRPINAPRP | 0.00476
RRIRDRPPRLPRPRPRPINMPRP | 0.00272
RRIRDRPPRLPRPRPRPIRCPRP | -0.0116
RRIRDRPPRLPRPRPRPIRFPRP | -0.0156
RRIRDRPPRLPRPRPRPISGPRP | 0.0039
RRIRDRPPRLPRPRPRPISLPRP | -0.0081
RRIRDRPPRLPRPRPRPIYPPRP | -1.42
RRIRDRPPRLPRPRPRPKCDPRP | 0.0437
RRIRDRPPRLPRPRPRPKCPPRP | 0.149
RRIRDRPPRLPRPRPRPKCRPRP | -0.00674
RRIRDRPPRLPRPRPRPKDRPRP | 0.0874
RRIRDRPPRLPRPRPRPKDTPRP | 0.0607
RRIRDRPPRLPRPRPRPKEAPRP | -0.0217
RRIRDRPPRLPRPRPRPKEYPRP | -0.0963
RRIRDRPPRLPRPRPRPKGDPRP | 0.0039
RRIRDRPPRLPRPRPRPKHLPRP | -0.0209
RRIRDRPPRLPRPRPRPKIWPRP | 0.127
RRIRDRPPRLPRPRPRPKKWPRP | -0.0255
RRIRDRPPRLPRPRPRPKLCPRP | -0.0785
RRIRDRPPRLPRPRPRPKLKPRP | -0.0223
RRIRDRPPRLPRPRPRPKLMPRP | -0.146
